Three substances from patent US20240092942A1 can be followed below.

The target of experiment [1] is huFcγRIIb on CHO^huFcγRIIb cells. As to the kind of experiment: flow cytometry on CHO^huFcγRIIb cells, anti-huCD32 mAb + PE-GAM F(ab')2; histogram peak at about 1.5e3; parental CHO cells: 86 printed. A general note: Flow cytometry measures light scatter and fluorescence of single cells or particles in a stream.
In experiment [2] the target is huEGFR on the cell surface (3T3^huEGFR, wild-type HEK293 (EGFR+), A431 cells) (human) (UniProt P00533). The experiment is described as follows: flow cytometry on 3T3^huEGFR cells, PE-conjugated anti-huEGFR mAb; histogram peak at about 2e3; parental 3T3 cells: 176 printed.
For experiment [3] the target is unchanged. As to the kind of experiment: flow cytometry on 3T3^huEGFR cells, PE-conjugated anti-huEGFR mAb; second number of the panel, given to the second cell line of the key (narrow histogram) [cont.) g, upper panel].
For experiment [4] the target is unchanged. As to the kind of experiment: flow cytometry on MDA-MB-231 cells, PE-conjugated anti-huEGFR mAb; first number of the panel, given to the first cell line of the key (broad, most shifted histogram) [cont.) g, upper panel].
The target in experiment [5] is PD-L1 on MDA-MB-231 cells (Homo sapiens) (UniProt Q9NZQ7). The experiment is described as follows: flow cytometry on MDA-MB-231 cells, APC-conjugated anti-huPD-L1 mAb; histogram peak at about 3e3 against control at about 2.5e2; 3T3^huEGFR cells (PD-L1 negative): 0 printed [cont.) g, lower panel].
Chain of PD-L1 on MDA-MB-231 cells (Homo sapiens) (Q9NZQ7 19-290 limits assumed): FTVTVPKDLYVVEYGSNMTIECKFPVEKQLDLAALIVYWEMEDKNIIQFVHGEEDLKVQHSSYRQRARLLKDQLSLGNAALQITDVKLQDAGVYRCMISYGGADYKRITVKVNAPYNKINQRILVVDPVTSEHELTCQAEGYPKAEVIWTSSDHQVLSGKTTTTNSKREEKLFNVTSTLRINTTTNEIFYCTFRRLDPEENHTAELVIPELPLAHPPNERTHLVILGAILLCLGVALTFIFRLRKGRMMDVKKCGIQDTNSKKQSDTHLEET

With “anti-huCD32 mAb (clone FUN-2); the sheet prints only the axis label huFcγRIIb (antibody)”, the MFI in experiment [1] turned out to be 1040.
For “anti-huEGFR PE-conjugated mAb (clone EGFR.1); the sheet prints only the axis label huEGFR (antibody)”, the MFI in experiment [2] is 1730; in experiment [3], 1820; in experiment [4], 5820.
Substance “anti-huPD-L1 APC-conjugated mAb (clone MIH1); the sheet prints only the axis label PD-L1 (antibody)” registered an MFI in experiment [5] of 3260.
